Assay results as given in the supplement of paper PMC12783771.
± gives the standard deviation of the averaged measurements.

B1: library; numbered along this chain (parent)
chain: MNIQIGELAKRTACPVVTIRFYEQEGLLPPPGRSRGNFRLYGEEHVERLQFIRHCRSLDMPLSDVRTLLSYRKRPDQDCGEVNMLLDEHIRQVESRIGALLELKHHLVELREACSGARPAQSCGILQGLSDCVCDTRGTTAHPSD

Assays:
[1] = variants of: B1; assay: sfGFP reporter fluorescence (15 h) (µM FITC); higher = higher leak; details: library round: Round 1; ligand: none
Protocol: (§1)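 Cell-free biosensing: 1 µL Echo-assembled CFE reactions with linear PbrR variant templates (5 nM) and pPbrR-sfGFP reporter, with 1 µM Pb, 30 µM Zn or no ligand; endpoint sfGFP fluorescence after 15 h at 30 °C calibrated as µM FITC. Round 1 ML-predicted PbrR mutants; 3 biological replicates.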

[2] = variants of: B1; assay: sfGFP reporter fluorescence (15 h) (µM FITC); higher = stronger transcriptional activation; details: library round: Round 1
Protocol: as §1

Variant	sfGFP reporter fluorescence [1]	sfGFP reporter fluorescence ([2]; ligand: 1 µM Pb)	sfGFP reporter fluorescence ([2]; ligand: 30 µM Zn)
I3G K104V	0.0618 ± 0.0017	0.06841 ± 0.00056	0.0899 ± 0.0043
I3M D131C	0.066 ± 0.0019	0.102 ± 0.016	0.446 ± 0.039
K10A V46T C134T	0.0627 ± 0.0013	0.0699 ± 0.0061	0.226 ± 0.021
P15A P61L	0.0735 ± 0.0017	0.0722 ± 0.0038	0.0794 ± 0.002
P15A P61N	0.0831 ± 0.0029	0.12 ± 0.017	0.573 ± 0.031
V16C K104V	0.0623 ± 0.0024	0.0778 ± 0.0038	0.0911 ± 0.012
V16C V46C	0.0646 ± 0.0017	0.066 ± 0.0025	0.0632 ± 0.0019
V16C V46Y	0.0651 ± 0.0018	0.07452 ± 0.00021	0.0793 ± 0.0053
V16N L58A	0.0597 ± 0.0018	0.0608 ± 0.00073	0.0591 ± 0.0024
V16S P61N	0.074 ± 0.00097	0.114 ± 0.021	0.612 ± 0.11
V16T K104V	0.0693 ± 0.0019	0.105 ± 0.0073	0.497 ± 0.034
R20W R111L	0.06866 ± 0.00056	0.0663 ± 0.0045	0.0727 ± 0.0011
E25V R111M	0.063 ± 0.0024	0.0654 ± 0.0053	0.152 ± 0.0061
L28V C134T	0.06536 ± 0.00042	0.0943 ± 0.0028	0.646 ± 0.022
P29L	0.0608 ± 0.0015	0.0704 ± 0.0041	0.213 ± 0.0041
P30A K104V	0.0666 ± 0.0032	0.115 ± 0.011	0.583 ± 0.05
P30A V46R	0.0618 ± 0.0011	0.0716 ± 0.0014	0.298 ± 0.024
P30V K104V	0.0683 ± 0.002	0.117 ± 0.0083	0.641 ± 0.092
G32A D131C	0.0613 ± 0.0022	0.0707 ± 0.0055	0.147 ± 0.0097
G32S C55M	0.0668 ± 0.0018	0.0712 ± 0.0065	0.101 ± 0.0013
R33A G36L	0.0634 ± 0.0035	0.0567 ± 0.0051	0.0604 ± 0.00092
R33C K104V	0.06255 ± 0.00056	0.0618 ± 0.0011	0.0646 ± 0.0015

Variant	sfGFP reporter fluorescence [1]	sfGFP reporter fluorescence ([2]; ligand: 1 µM Pb)	sfGFP reporter fluorescence ([2]; ligand: 30 µM Zn)
R33M Q127T	0.0635 ± 0.0027	0.0614 ± 0.0047	0.0645 ± 0.0022
G36F M60L P61N	0.0662 ± 0.0022	0.0735 ± 0.0027	0.143 ± 0.007
G36K P61N	0.0721 ± 0.0043	0.112 ± 0.0096	0.588 ± 0.075
R39F V46C	0.065 ± 0.0013	0.0632 ± 0.0031	0.0655 ± 0.0018
E43C K104V	0.065 ± 0.0013	0.0922 ± 0.0039	0.162 ± 0.011
E43M G128I	0.077 ± 0.0028	0.206 ± 0.025	1.23 ± 0.086
E43Y P61N	0.0713 ± 0.0038	0.139 ± 0.0038	0.822 ± 0.12
V46F K104V	0.0666 ± 0.0012	0.103 ± 0.0038	0.475 ± 0.047
C55L K104V	0.0651 ± 0.0015	0.0729 ± 0.004	0.121 ± 0.0031
C55L M60L P61N D64K	0.071 ± 0.0012	0.0878 ± 0.0025	0.382 ± 0.0068
C55V K104V	0.0621 ± 0.00092	0.0644 ± 0.0017	0.107 ± 0.0044
L58F K104V	0.0645 ± 0.00097	0.0808 ± 0.00092	0.182 ± 0.024
L58F M60L P61N	0.091 ± 0.002	0.191 ± 0.051	0.61 ± 0.095
L58F P61N	0.0663 ± 0.0015	0.0952 ± 0.0084	0.219 ± 0.02
M60F P61N D64K	0.624 ± 0.057	1.61 ± 0.059	1.82 ± 0.16
M60L D64K D131C	0.344 ± 0.036	0.896 ± 0.29	2.2 ± 0.15
M60L D64K D135S	0.29 ± 0.02	0.662 ± 0.097	1.93 ± 0.17
M60L D64K E81A R111A	0.488 ± 0.013	1.37 ± 0.17	2.16 ± 0.59
M60L D64K G128T D131C	0.754 ± 0.023	1.8 ± 0.19	2.25 ± 0.44
M60L D64K G128T D135A	0.874 ± 0.016	1.32 ± 0.071	2.33 ± 0.27
M60L D64K K104T	0.5087 ± 0.0029	1.14 ± 0.23	2.22 ± 0.29
M60L D64K K104V D131C	0.504 ± 0.028	1.29 ± 0.22	1.91 ± 0.2
